This is an account of results in US20040018561.

The target in data set [1] is N-2-[(7-methoxy-2-oxo-2H-chromen-4-yl)acetyl]-D-arginyl-L-prolyl-L-leucylglycyl-L-leucyl-3-[(2,4-dinitrophenyl)amino]-L-alanyl-L-alanyl-D-arginyl-D-alpha-glutamyl-D-argininamide.
Data set [2] deals with N-2-[(7-methoxy-2-oxo-2H-chromen-4-yl)acetyl]-D-arginyl-L-prolyl-L-leucylglycyl-6-phenoxy-L-norleucyl-3-[(2,4-dinitrophenyl)amino]-L-alanyl-L-alanyl-D-arginyl-D-alpha-glutamyl-D-argininamide.
The target in data set [3] is N-2-[(7-methoxy-2-oxo-2H-chromen-4-yl)acetyl]-L-arginyl-L-prolyl-L-leucylglycyl-6-(benzyloxy)-L-norleucyl-3-[(2,4-dinitrophenyl)amino]-L-alanyl-L-alanyl-L-arginyl-L-alpha-glutamyl-L-argininamide.
The target of data set [4] is N-2-[(7-methoxy-2-oxo-2H-chromen-4-yl)acetyl]-D-arginyl-L-prolyl-L-leucylglycyl-6-(benzyloxy)-L-norleucyl-3-[(2,4-dinitrophenyl)amino]-L-alanyl-L-alanyl-D-arginyl-D-alpha-glutamyl-D-argininamide.
In data set [5] the target is N-2-[(7-methoxy-2-oxo-2H-chromen-4-yl)acetyl]-L-arginyl-L-prolyl-L-leucylglycyl-L-leucyl-3-[(2,4-dinitrophenyl)amino]-L-alanyl-L-alanyl-D-arginyl-D-alpha-glutamyl-D-argininamide.
Data set [6] has as its target N-2-[(7-methoxy-2-oxo-2H-chromen-4-yl)acetyl]-L-arginyl-L-prolyl-L-leucylglycyl-L-leucyl-3-[(2,4-dinitrophenyl)amino]-L-alanyl-L-alanyl-L-arginyl-L-alpha-glutamyl-L-argininamide.

B1: MMP-1 (protein)
chain: FVLTEGNPRWEQTHLTYRIENYTPDLPRADVDHAIEKAFQLWSNVTPLTFTKVSEGQADIMISFVRGDHRDNSPFDGPGGNLAHAFQPGPGIGGDAHFDEDERWTNNFREYNLHRVAAHELGHSLGLSHSTDIGALMYPSYTFSGDVQLAQDDIDGIQAIYGRSQNPVQPIGPQTPKACDSKLTFDAITTIRGEVMFFKDRFYMRTNPFYPEVELNFISVFWPQLPNGLEAAYEFADRDEVRFFKGNKYWAVQGQNVLHGYPKDIYSSFGFPRTVKHIDAALSEENTGKTYFFVANKYWRYDEYKRSMDPGYPKMIAHDFPGIGHKVDAVFMKDGFFYFFHGTRQYKFDPKTKRILTLQKANSWFNCRKN
Broadly, the Km is the substrate concentration at which the rate is half of its maximum. As usually defined, the kcat/Km is the turnover number divided by the Michaelis constant. With B1, the Km was 49 µM in data set [1], 35.1 µM in data set [4], 17.3 µM in data set [5] and 16 µM in data set [6]. For the same protein, the kcat/Km in data set [1] is 57000 M⁻¹ s⁻¹; in data set [2] it was 0 M⁻¹ s⁻¹; in data set [3], 0 M⁻¹ s⁻¹; in data set [4] it was 3600 M⁻¹ s⁻¹; in data set [5], 176000 M⁻¹ s⁻¹; in data set [6], 255000 M⁻¹ s⁻¹.

B2: MMP-2 (protein)
chain: YNFFPRKPKWDKNQITYRIIGYTPDLDPETVDDAFARAFQVWSDVTPLRFSRIHDGEADIMINFGRWEHGDGYPFDGKDGLLAHAFAPGTGVGGDSHFDDDELWTLGEGQVVRVKYGNADGEYCKFPFLFNGKEYNSCTDTGRSDGFLWCSTTYNFEKDGKYGFCPHEALFTMGGNAEGQPCKFPFRFQGTSYDSCTTEGRTDGYRWCGTTEDYDRDKKYGFCPETAMSTVGGNSEGAPCVFPFTFLGNKYESCTSAGRSDGKMWCATTANYDDDRKWGFCPDQGYSLFLVAAHEFGHAMGLEHSQDPGALMAPIYTYTKNFRLSQDDIKGIQELYGASPDIDLGTGPTPTLGPVTPEICKQDIVFDGIAQIRGEIFFFKDRFIWRTVTPRDKPMGPLLVATFWPELPEKIDAVYEAPQEEKAVFFAGNEYWIYSASTLERGYPKPLTSLGLPPDVQRVDAAFNWSKNKKTYIFAGDKFWRYNEVKKKMDPGFPKLIADAWNAIPDNLDAVVDLQGGGHSYFFKGAYYLKLENQSLKSVKFGSIKSDWLGC
Turning to B2, the Km came out at 9.9 µM in data set [1]; 3.6 µM in data set [2]; 8.3 µM in data set [3]; 3.7 µM in data set [4]; 16.3 µM in data set [5]; 16.5 µM in data set [6]. In addition, the kcat/Km in data set [1] was determined as 178000 M⁻¹ s⁻¹; in data set [2], 1.96e+06 M⁻¹ s⁻¹; in data set [3], 1.34e+06 M⁻¹ s⁻¹; in data set [4], 600000 M⁻¹ s⁻¹; in data set [5] it was 681000 M⁻¹ s⁻¹; in data set [6], 565000 M⁻¹ s⁻¹.

B3: MMP-7 (protein)
chain: YSLFPNSPKWTSKVVTYRIVSYTRDLPHITVDRLVSKALNMWGKEIPLHFRKVVWGTADIMIGFARGAHGDSYPFDGPGNTLAHAFAPGTGLGGDAHFDEDERWTDGSSLGINFLYAATHELGHSLGMGHSSDPNAVMYPTYGNGDPQNFKLSQDDIKGIQKLYGKRSNSRKK
As to B3, the Km is 81.2 µM in data set [1], 94.7 µM in data set [4], 25 µM in data set [5] and 26.4 µM in data set [6]. In addition, the kcat/Km is 22000 M⁻¹ s⁻¹ in data set [1]; 0 M⁻¹ s⁻¹ in data set [2]; 0 M⁻¹ s⁻¹ in data set [3]; 2980 M⁻¹ s⁻¹ in data set [4]; 120000 M⁻¹ s⁻¹ in data set [5]; 142000 M⁻¹ s⁻¹ in data set [6].
